Experimental findings from PMC5824745 are described below.

Assay [1] has as its target eukaryotic Initiation Factor 4E (eIF4E), wild type (mouse (endogenous in forebrain)) (UniProt P63073). Description: pull-down; cap-column pulldown: 500 ug forebrain lysate protein with 50 ul m7GDP agarose in buffer C (50 mM MOPS-KOH pH 7.4, 100 mM NaCl, 50 mM NaF, 0.5 mM EDTA, 0.5 mM EGTA, 0.1 mM GTP), 90 min at 4 C; eIF4E held by its ligand m7GDP; cap-bound fraction immunoblotted and quantified, normalised to input. A general note: A western blot detects proteins with antibodies after separation by electrophoresis.

In another assay the target is eIF4G (UniProt Q6NZJ6). Briefly: m7GDP-agarose cap pull-down, immunoblot. The conditions noted are these: reference: wild-type mouse forebrain; sites S209.
The target of another assay is rpL13a (UniProt P19253). Briefly: m7GDP-agarose cap pull-down, immunoblot. The conditions noted are these: reference: wild-type mouse forebrain; sites S209.
The target of a further assay is Gapdh (UniProt P16858). Description: m7GDP-agarose cap pull-down, immunoblot. The following applies: reference: wild-type mouse forebrain; sites S209.

Chain of Gapdh, P16858 1-333 (natural protein; other documents disagree on this pair) (P16858 whole entry): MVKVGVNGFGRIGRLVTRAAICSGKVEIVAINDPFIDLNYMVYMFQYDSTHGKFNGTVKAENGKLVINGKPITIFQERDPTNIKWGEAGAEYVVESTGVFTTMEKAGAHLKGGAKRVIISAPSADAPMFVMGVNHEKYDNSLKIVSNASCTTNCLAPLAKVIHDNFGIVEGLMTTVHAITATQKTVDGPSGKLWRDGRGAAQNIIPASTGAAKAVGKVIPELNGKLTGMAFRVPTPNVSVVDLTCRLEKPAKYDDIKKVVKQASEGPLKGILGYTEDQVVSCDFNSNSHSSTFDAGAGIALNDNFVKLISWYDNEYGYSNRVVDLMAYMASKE

In assay [1], “Gapdh, P16858 1-333 (natural protein; other documents disagree on this pair)” returned a cap-bound protein (arbitrary units, normalised to input) (arbitrary units) of 0.998.
In the case of “eIF4E (from UniProt P63073) 4Eki (S209A knock-in) forebrain”, the “other: cap-bound band intensity normalized to input” value with eIF4G is “same; reference 1.002 ± 0.149”; with rpL13a, “weaker; reference 0.9975 ± 0.1723”; with Gapdh, “same; reference 0.998 ± 0.254”.
